In patent publication US20220332804A1 (CSL INNOVATION, published 2022) one finds Kd and Fold diff data, which are given here for two molecules.

One experiment addresses T1, human complement C2 (human, UniProt P06681 21-752).
T1 construct: Recombinant full-length human C2 with C-terminal 8x His tag, purified from Expi293F supernatant; also called human C2; huC2
T1 sequence: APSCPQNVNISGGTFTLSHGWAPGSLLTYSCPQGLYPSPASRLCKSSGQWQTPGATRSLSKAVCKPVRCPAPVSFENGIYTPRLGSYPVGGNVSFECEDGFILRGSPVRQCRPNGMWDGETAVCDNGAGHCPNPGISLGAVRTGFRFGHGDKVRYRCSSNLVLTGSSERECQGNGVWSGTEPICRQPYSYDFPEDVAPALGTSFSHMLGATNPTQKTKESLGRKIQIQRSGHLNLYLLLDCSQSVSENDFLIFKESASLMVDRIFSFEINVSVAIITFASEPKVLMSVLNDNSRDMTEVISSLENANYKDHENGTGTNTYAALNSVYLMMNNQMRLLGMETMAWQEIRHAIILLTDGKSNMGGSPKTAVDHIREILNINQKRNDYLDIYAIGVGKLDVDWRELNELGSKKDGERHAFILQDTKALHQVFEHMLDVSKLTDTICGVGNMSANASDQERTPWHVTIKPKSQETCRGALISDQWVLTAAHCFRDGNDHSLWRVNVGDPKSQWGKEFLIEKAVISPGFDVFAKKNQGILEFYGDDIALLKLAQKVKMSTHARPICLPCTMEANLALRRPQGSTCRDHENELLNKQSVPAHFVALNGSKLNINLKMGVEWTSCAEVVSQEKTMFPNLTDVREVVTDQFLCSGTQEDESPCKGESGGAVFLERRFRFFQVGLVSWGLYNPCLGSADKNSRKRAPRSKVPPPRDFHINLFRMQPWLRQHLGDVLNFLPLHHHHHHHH
As to the kind of experiment: SPR, mAb captured, huC2 analyte, neutral pH; pH 7.

A further experiment concerns the target T2, human C2 N703A (human, UniProt P06681 21-752).
T2 sequence: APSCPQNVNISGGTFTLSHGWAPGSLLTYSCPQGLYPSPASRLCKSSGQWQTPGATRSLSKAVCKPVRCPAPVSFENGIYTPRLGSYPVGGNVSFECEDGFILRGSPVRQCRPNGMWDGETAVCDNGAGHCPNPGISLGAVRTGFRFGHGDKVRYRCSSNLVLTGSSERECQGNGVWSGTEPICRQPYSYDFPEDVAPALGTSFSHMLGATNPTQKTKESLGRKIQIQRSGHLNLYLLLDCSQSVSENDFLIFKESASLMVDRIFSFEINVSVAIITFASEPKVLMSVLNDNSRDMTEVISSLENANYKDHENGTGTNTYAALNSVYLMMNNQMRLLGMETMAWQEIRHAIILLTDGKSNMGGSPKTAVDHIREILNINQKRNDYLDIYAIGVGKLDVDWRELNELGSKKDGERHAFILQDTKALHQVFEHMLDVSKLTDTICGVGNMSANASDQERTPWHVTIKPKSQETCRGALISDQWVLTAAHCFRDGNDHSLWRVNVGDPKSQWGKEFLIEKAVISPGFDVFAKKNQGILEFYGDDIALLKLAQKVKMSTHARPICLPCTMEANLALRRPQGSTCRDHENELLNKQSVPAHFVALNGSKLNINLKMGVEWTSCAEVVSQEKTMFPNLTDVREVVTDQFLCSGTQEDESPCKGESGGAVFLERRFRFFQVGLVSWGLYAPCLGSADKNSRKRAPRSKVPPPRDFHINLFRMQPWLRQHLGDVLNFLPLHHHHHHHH
As to the kind of experiment: SPR, KD relative to WT C2.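 Further: biacore SPR at 37 °C, anti-C2 mAbs captured via immobilised goat anti-human IgG, C2 alanine or serine surface mutants as analytes, 1:1 model fitted, double-referenced sensograms.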

In another experiment the target is T3, human C2 E476A (human, UniProt P06681 21-752).
T3 sequence: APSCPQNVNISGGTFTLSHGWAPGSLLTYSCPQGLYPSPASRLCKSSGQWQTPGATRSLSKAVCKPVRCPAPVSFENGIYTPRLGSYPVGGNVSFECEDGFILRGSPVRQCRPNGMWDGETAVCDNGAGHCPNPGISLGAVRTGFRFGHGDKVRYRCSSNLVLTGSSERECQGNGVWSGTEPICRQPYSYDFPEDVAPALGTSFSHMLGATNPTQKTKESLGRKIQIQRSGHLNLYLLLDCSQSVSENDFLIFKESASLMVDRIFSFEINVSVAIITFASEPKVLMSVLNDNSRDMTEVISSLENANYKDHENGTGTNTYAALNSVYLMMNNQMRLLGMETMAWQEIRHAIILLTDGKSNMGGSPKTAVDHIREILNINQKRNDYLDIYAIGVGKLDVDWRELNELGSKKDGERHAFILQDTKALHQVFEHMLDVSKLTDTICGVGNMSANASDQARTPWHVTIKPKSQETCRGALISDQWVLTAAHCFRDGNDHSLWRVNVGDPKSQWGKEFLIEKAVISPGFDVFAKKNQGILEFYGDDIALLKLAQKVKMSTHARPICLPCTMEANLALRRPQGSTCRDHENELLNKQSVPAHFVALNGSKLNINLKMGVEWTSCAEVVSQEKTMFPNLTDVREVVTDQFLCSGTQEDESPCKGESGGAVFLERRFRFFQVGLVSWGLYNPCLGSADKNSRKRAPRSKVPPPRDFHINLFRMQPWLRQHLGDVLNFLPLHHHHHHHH
The experiment can be described thus: SPR, KD relative to WT C2.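 Further: biacore SPR at 37 °C, anti-C2 mAbs captured via immobilised goat anti-human IgG, C2 alanine or serine surface mutants as analytes, 1:1 model fitted, double-referenced sensograms.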

Another experiment addresses T4, human C2 R510A (human, UniProt P06681 21-752).
T4 sequence: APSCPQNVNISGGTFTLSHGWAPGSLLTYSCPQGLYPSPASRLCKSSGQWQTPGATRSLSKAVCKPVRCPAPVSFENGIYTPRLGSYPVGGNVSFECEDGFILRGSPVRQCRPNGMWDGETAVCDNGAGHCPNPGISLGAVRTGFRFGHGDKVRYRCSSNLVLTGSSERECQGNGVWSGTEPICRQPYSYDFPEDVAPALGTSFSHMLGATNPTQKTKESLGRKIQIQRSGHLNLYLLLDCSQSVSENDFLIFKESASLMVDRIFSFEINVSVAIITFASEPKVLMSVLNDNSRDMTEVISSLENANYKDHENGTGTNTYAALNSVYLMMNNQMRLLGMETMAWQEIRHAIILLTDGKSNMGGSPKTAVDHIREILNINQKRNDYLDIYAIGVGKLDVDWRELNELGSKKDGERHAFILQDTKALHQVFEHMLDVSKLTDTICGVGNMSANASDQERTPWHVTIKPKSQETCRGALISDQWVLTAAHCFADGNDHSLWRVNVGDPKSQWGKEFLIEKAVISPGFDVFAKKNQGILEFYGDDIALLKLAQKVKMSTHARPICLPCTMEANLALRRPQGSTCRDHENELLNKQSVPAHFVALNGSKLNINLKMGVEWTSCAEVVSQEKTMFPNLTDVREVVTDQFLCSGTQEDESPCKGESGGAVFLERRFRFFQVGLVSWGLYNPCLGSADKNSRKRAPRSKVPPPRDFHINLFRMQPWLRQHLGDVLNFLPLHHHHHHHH
The experiment can be described thus: SPR, KD relative to WT C2.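 Further: biacore SPR at 37 °C, anti-C2 mAbs captured via immobilised goat anti-human IgG, C2 alanine or serine surface mutants as analytes, 1:1 model fitted, double-referenced sensograms.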

B1: RF16-226 (antibody)
heavy: not shown
light: SYELTQPPSVSVSPGQTARITCSGDALTSKYVAWYQQKSGLAPLLVIYEDTRRPSGIPAKFSGSSSGSVATLTISGAHGDDEADYYCYSTDASGHQRVFGGGTKLTVLSQPKAAPSVTLFPPSSEELQANKATLVCLISDFYPGAVTVAWKADGSPVKAGVETTKPSKQSNNKYAASSYLSLTPEQWKSHRSYSCQVTHEGSTVEKTVAPTECS
As to B1, the Kd in the experiment with human complement C2 was around 9 nM.

B2: RF16-226 (antibody, human IgG4 S228P, lambda)
heavy: not shown
light: SYELTQPPSVSVSPGQTARITCSGDALTSKYVAWYQQKSGLAPLLVIYEDTRRPSGIPAKFSGSSSGSVATLTISGAHGDDEADYYCYSTDASGHQRVFGGGTKLTVLSQPKAAPSVTLFPPSSEELQANKATLVCLISDFYPGAVTVAWKADGSPVKAGVETTKPSKQSNNKYAASSYLSLTPEQWKSHRSYSCQVTHEGSTVEKTVAPTECS
notes: pH-dependent anti-C2 antibody from a phage display library; also called WT
As to B2, the figures for the Fold diff with human C2 N703A, in the experiment with human C2 E476A and with human C2 R510A were 29 fold, 2 fold and 11 fold, respectively.
